# Measurements reported in patent US20220170006A1, “A PSEUDO-RANDOM DNA EDITOR FOR EFFICIENT AND CONTINUOUS NUCLEOTIDE DIVERSIFICATION IN HUMAN CELLS” (THE BROAD INSTITUTE, INC., priority 2019, published 2022).
# B1: pAPOBEC: control plasmid expressing deaminase alone (rat APOBEC1) (protein, UniProt P38483 1-229, looked up)
# C->U-editing enzyme APOBEC-1: MSSETGPVAVDPTLRRRIEPHEFEVFFDPRELRKETCLLYEINWGGRHSIWRHTSQNTNKHVEVNFIEKFTTERYFCPNTRCSITWFLSWSPCGECSRAITEFLSRYPHVTLFIYIARLYHHADPRNRQGLRDLISSGVTIQIMTEQESGYCWRNFVNYSPSNEAHWPRYPHLWVRLYVLELYCIILGLPPCLNILRRKQPQLTFFTIALQSCHYQRLPPHILWATGLK
# How the values were obtained:
# [1] = tested on: EGFP gene solely under the control of a T7 promoter (pTarget) in HEK293T cells; test: EGFP expression from pTarget driven by pEditor variants (T7 RNAP transcriptional activity); format: cell-based, human; settings: HEK293T cells co-transfected with pTarget and pEditor variant; listed as pAPOEBC
# Protocol: Each pEditor variant was introduced into HEK293T cells together with pTarget in which EGFP gene was solely under the control of a T7 promoter. […] Scale bar, 200 μm, which also applies to other micrographs. […] Cells transfected with pTarget and pEditor plasmids were incubated for 3 days before being harvested. pTarget plasmids were extracted and PCR reactions were performed to amplify the target region. Sequencing libraries were prepared using the PCR products and next-generation sequencing was performed. Mutation rates in each group, across different pEditor variants, were calculated.
# (§1) HEK293T cells were obtained from ATCC and were grown in high-glucose (4.5 g/L) DMEM supplemented with GlutaMAX™, 1 mM sodium pyruvate, 10% FBS, 100 units/mL of penicillin and 100 μg/mL of streptomycin in a humidified chamber with 5% CO2 at 37° C. Cells were maintained at ˜80% confluence in 24-well plates on the day of transfection. 250 ng of pTarget and 250 ng of pEditor plasmids were mixed together with 1 μl of TransIT-X2 reagent (Mirus) and the mixture was incubated in 50 μl of Opti-MEM® (Thermo Fisher Scientific™) for 30 min. The mixture was then added drop-wise to each well. […]
# To test whether fusing a cytidine deaminase to T7 RNAP maintained T7 RNAP activity, pTarget and various pEditor plasmids were transfected into HEK 293T cells and EGFP fluorescence under each condition was measured.
# [2] = tested on: 2000-bp window downstream of a T7 promoter on pTarget in HEK293T cells; test: Mutation rates in the 2000-bp window of the pTarget plasmid by high-throughput sequencing; format: cell-based, human; settings: cytidine deaminase only
# Protocol: as §1
# To sequence the targeted region (˜2000 bp) on pTarget, plasmids were extracted from ˜1 million cells using Qiaprep Spin Miniprep Kit. PCR was performed using those plasmids as templates (primer sequences are shown in Table 2 above. Ampure® XP beads (Beckman Coulter™) were added to samples at a 0.8:1 ratio to size select for the pcr'ed fragments. The concentration of each sample was measured by Qubit™ (Thermo Fisher Scientific™). 1 ng of DNA at a volume of 2.5 μl from each sample was used as input for the subsequent library preparation. Sequencing library was prepared following the Nextera® XT Kit protocol (Illumina®) except that half the amount of each reagent was used. To sequence the targeted loci, genomic DNA was extracted from ˜1 million cells using the Quick-DNA™ Kit (Zymo Research™). […]
molecule,measurement,setting,value
B1,EGFP expression / EGFP signals,[1],not
same,C->T and G->A mutation rates compared with background (pT7) error rates,[2],not statistically different from the background error rates
